Measurements as given in patent publication US20140235490A1.

Target: Firefly luciferase fragment FFL (265-550) (Photinus pyralis) [luciferase: P08659]
Experiment: cell-based or functional assay

Firefly luciferase fragment FFL (1-478), sequence (P08659 1-478): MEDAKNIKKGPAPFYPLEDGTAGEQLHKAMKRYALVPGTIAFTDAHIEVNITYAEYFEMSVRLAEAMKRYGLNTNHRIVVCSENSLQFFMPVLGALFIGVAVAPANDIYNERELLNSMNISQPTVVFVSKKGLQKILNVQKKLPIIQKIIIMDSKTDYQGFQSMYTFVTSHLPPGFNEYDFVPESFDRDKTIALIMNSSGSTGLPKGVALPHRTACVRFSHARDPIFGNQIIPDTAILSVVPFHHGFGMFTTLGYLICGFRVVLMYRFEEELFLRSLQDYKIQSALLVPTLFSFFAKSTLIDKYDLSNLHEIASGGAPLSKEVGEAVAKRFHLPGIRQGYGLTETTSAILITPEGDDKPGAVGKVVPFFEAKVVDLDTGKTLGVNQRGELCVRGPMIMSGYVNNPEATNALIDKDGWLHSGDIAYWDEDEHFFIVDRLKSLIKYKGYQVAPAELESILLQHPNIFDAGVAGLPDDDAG
Firefly luciferase fragment FFL (265-550) (Photinus pyralis) [luciferase: P08659], sequence (P08659 265-550): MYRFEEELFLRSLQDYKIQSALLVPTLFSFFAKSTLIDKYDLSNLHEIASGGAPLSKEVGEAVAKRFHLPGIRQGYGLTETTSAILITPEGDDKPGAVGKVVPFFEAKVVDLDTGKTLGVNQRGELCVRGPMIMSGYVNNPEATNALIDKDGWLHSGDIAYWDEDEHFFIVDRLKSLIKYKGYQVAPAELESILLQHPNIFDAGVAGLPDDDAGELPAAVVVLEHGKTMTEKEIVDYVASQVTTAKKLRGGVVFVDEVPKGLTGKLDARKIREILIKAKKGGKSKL

Firefly luciferase fragment FFL (1-478) (from UniProt P08659 1-478)
luciferase activity after recombination of the fragments: < 4%
